Six molecules from patent US10287340B2, “Anti-HIV domain antibodies and method of making and using same” (priority 2008, dated 2019) can be followed below.

By EC50 is commonly meant the concentration needed to bring the measured effect to its halfway point.

Entries after “also recorded” stand apart in the source; their conditions may differ. Like-named read-outs stand apart in the source and are kept apart here.

The test system of data set [1] is Viruses pseudotyped with HIV-1 Envs. The data set can be described thus: Pseudovirus neutralization assay. As to conditions: for neutralizing activity compared to m36: side by side in the same experiment. In kind it is cell-based.
Data set [2] addresses gp120Bal-CD4. The experiment in a line: Binding ELISA to gp120Bal-CD4 (Example 3). The arrangement: species or system HIV-1. (In general: An ELISA detects its analyte on a solid surface through an enzyme-linked reagent.)
The test system of data set [3] is gp140 from a clade C isolate GXC-44 (gp140GXC-44). The data set can be described thus: Binding ELISA to gp140GXC-44. More on the design: species or system HIV-1.
The nature of data set [4]: Size exclusion chromatography, oligomerization. As to conditions: Superdex75, PBS.
The test system of data set [5] is gp140GXC-44. The data set can be described thus: Competition ELISA on gp140GXC-44. It counts as binding, HIV-1. As to conditions: in the absence of CD4. Here is the method: (§1) Antigens were coated and blocked as described above. […] Mixtures were subsequently added to each well and incubated. Bound m36 was detected and the assay was developed as described above.

Data set [6] deals with gp120Bal. The data set can be described thus: ELISA binding to gp120 alone. The arrangement: species or system HIV-1. To be noted: without CD4.
The nature of data set [7]: Storage of VH protein solutions at 4° C., precipitation. In kind it is physicochemical. To be noted: stored at 4° C. for 4 weeks.
Data set [8] has as its target soluble CD4 (sCD4) (Homo sapiens, UniProt P01730). The data set can be described thus: ELISA binding to CD4 alone.
Data set [9] deals with BSA (Bos taurus, UniProt P02769). The data set can be described thus: Binding ELISA to BSA (unrelated antigen).
For data set [10], the system named is gp120Bal-CD4. The data set can be described thus: Competition ELISA on gp120Bal-CD4. It counts as binding, HIV-1. Here is the method:
as §1

The test system of data set [11] is tethered gp140 from 89.6.
Data set [12] deals with serum albumin from human (HSA) (Homo sapiens, UniProt P02768). The experiment in a line: Binding of m36SAbp to human serum albumin. To be noted: data not shown.
The target in data set [13] is serum albumin from mouse (MSA) (Mus musculus, UniProt P07724). The experiment in a line: Binding of m36SAbp to mouse serum albumin. To be noted: data not shown.
The target in data set [14] is serum albumin from bovine (BSA) (Bos taurus, UniProt P02769). The data set can be described thus: Binding of m36SAbp to bovine serum albumin. As to conditions: data not shown.
serum albumin from bovine (BSA), sequence (P02769 25-607): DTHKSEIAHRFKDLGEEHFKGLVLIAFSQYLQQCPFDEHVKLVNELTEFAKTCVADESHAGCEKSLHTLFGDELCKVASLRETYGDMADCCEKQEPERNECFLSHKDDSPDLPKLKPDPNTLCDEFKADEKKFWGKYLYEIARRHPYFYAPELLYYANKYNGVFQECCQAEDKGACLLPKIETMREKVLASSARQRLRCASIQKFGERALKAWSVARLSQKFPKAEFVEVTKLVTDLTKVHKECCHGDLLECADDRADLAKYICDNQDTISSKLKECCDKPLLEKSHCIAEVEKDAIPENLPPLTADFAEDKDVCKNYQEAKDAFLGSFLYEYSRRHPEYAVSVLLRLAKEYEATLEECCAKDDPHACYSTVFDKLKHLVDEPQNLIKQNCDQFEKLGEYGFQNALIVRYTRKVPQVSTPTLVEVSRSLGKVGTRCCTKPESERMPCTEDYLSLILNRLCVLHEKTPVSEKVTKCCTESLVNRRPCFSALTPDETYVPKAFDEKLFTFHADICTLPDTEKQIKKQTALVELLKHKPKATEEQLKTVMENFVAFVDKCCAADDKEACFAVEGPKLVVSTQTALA

tethered gp140 from 89.6, sequence (Q73372 32-496 limits assumed): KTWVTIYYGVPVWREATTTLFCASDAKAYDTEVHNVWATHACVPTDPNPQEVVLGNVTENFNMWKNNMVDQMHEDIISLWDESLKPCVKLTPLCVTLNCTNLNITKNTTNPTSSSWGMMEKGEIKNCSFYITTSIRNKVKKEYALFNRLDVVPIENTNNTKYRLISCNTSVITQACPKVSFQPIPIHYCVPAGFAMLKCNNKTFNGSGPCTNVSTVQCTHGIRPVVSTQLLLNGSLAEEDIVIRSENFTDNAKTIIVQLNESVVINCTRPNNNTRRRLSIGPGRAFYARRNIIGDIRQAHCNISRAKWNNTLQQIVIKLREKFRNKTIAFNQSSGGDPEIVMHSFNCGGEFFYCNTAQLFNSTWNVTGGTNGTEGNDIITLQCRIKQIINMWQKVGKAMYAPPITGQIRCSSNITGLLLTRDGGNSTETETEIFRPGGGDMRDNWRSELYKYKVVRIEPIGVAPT
serum albumin from mouse (MSA), sequence (P07724 25-608): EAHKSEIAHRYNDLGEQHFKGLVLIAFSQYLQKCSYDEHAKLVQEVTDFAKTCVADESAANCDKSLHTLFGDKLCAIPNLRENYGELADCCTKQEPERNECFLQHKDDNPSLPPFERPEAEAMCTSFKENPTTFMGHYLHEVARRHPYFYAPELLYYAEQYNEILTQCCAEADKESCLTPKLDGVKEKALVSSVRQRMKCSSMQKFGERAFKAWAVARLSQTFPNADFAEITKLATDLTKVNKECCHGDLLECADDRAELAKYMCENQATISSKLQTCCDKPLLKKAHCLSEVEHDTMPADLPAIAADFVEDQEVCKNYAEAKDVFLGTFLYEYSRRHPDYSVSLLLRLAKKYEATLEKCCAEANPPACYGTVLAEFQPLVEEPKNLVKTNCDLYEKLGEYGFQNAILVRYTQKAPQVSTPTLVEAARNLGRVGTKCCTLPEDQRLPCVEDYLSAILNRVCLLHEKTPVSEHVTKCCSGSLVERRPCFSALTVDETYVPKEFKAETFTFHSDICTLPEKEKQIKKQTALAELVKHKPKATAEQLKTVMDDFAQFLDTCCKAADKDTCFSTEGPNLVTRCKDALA
BSA, sequence (P02769 25-607): as the sequence (P02769 25-607) above

B1: m36h3Fc: m36 joined with human IgG1 Fc by a human IgG3 hinge (protein)
chain: QVQLVQSGGGLVQPGGSLRLSCAASAFDFSDYEMSWVRQAPGKGLEWIGEINDSGNTIYNPSLKSRVTISRDNSKNTLYLQMNTLRAEDTAIYYCAIYGGNSGGEYWGQGTLVTVSSELKTPLGDTTHTCPRCPEPKSCDTPPPCPRCP
modifications: left off: a dimerising Fc or GST
notes: m36 joined with human IgG1 Fc by a human IgG3 hinge
B1: in data set [1], the “number of isolates neutralized” value is “five isolates”, the “potency against 89.6 compared to m36” value was “higher than that of m36” and the “potency compared to m36h1Fc” value is given as “did not exhibit higher potency”. In data set [2], the EC50 is around 0.5 nM.

B2: m36: human VH domain antibody (dAb) on m0 scaffold targeting CD4i epitope of HIV-1 gp120; CDR3 AIYGGNSGGEY (protein)
VHH: QVQLVQSGGGLVQPGGSLRLSCAASAFDFSDYEMSWVRQAPGKGLEWIGEINDSGNTIYNPSLKSRVTISRDNSKNTLYLQMNTLRAEDTAIYYCAIYGGNSGGEYWGQGTLVTVSS
Regarding B2, the figures for the “binding to gp140GXC-44” value in data set [3] (gp140GXC-44 alone) and in data set [3] (in the presence of sCD4) were “did bind although weaker” and “bound”, respectively. In addition, in [4], the oligomeric state entry is recorded as “monomeric”. The “competition with m14 for binding to gp140GXC-44” value in data set [5] is listed as “competed”. Further, the “binding to gp120 alone” value in data set [6] is “not to gp120Bal or to soluble CD4 (sCD4) and BSA”. In addition, the precipitation on storage entry in data set [7] is recorded as “no precipitation”. In addition, the “inhibition of the isolate from clade C” value in data set [1] (at 667 nM) is on record as 100%. In addition, the “isolates completely (100%) inhibited” value in data set [1] (at 667 nM, 7 clade B isolates in panel) was 4 out of 7. Also, the “neutralization of the clade E isolate GXE” value in [1] (at concentrations up to 667 nM) is on record as “did not neutralize”. Also, in data set [1] (average over panel), the “potency compared to peptide C34” value is given as “on average more potent”. For the same molecule, the “neutralization potency compared to scFv m9” value in data set [1] (average, six clade B, one clade C, one clade A isolate, IC50s on molar basis) was “two-fold higher”. Also, the “cross-reactivity against HIV-1 isolates” value in data set [1] (clade A, B, C, and D) is reported as “cross-reactive”. In addition, the “neutralization activity compared to scFv m9” value in data set [1] (clade B isolate 89.6 and clade-D isolate Z2Z6) is “lower neutralization activity”. For the same molecule, the IC90 entry in data set [1] (clade C isolate GXC-44 and clade B isolate NL4-3) was “very low IC90s”. Besides, the “binding to CD4 alone” value in [8] is “not to gp120Bal or to soluble CD4 (sCD4) and BSA”; in data set [8] (listed as b5), “neither gp120 nor CD4 alone”. For the same molecule, in [9], the “binding to BSA” value was “not to gp120Bal or to soluble CD4 (sCD4) and BSA”. The “competition with CD4bs antibody m14 for binding to gp120Bal-CD4” value in [10] was “not with the CD4 binding site (CD4bs) antibody m14”. The “competition with CD4i antibody m16 for binding to gp120Bal-CD4” value in [10] is given as “competed”. Further, the “binding to tethered gp140 from 89.6” value in data set [11] (after gp140 bound to CD4) is “enhanced”; in [11] (without complexation with CD4), “bound”.

B3: m36CH3: m36 fused to human IgG1 CH3 domain without linker, MW~60 kDa (protein)
VHH: QVQLVQSGGGLVQPGGSLRLSCAASAFDFSDYEMSWVRQAPGKGLEWIGEINDSGNTIYNPSLKSRVTISRDNSKNTLYLQMNTLRAEDTAIYYCAIYGGNSGGEYWGQGTLVTVSS
modifications: left off: a dimerising Fc or GST; small tags and cut ends
notes: m36 fused to human IgG1 CH3 domain without linker, MW~60 kDa
In the case of B3, in data set [1] (10 isolates), the “isolates with loss of neutralization compared to m36” value is given as 7 of 10. In addition, the “IC50s compared to the corresponding ones for m36” value in data set [1] (IIIB, 89.6 and NL4-3) is “significantly higher”. Also, the “neutralizing activity compared to m36” value in data set [1] is listed as “significantly weaker”. The “binding to gp120Bal-CD4 compared to m36” value in data set [2] is given as “comparable to that of m36”.

B4: m36b0Fc: m36 fused to human IgG1 Fc without peptide linker, MW~80 kDa (protein)
VHH: QVQLVQSGGGLVQPGGSLRLSCAASAFDFSDYEMSWVRQAPGKGLEWIGEINDSGNTIYNPSLKSRVTISRDNSKNTLYLQMNTLRAEDTAIYYCAIYGGNSGGEYWGQGTLVTVSS
modifications: left off: a dimerising Fc or GST
notes: m36 fused to human IgG1 Fc without peptide linker, MW~80 kDa
Turning to B4, in [1], the “inhibitory activity against 89.6 and NL4-3” value was “decreased inhibitory activity”; the “neutralization of TCLA isolate IIIB” value is “lost neutralization”. For the same molecule, the “binding to gp120Bal-CD4 compared to m36” value in [2] was “bound slightly better”.

B5: m36c2Fc: m36 joined with human IgG1 Fc by a camel IgG2 hinge (protein)
chain: QVQLVQSGGGLVQPGGSLRLSCAASAFDFSDYEMSWVRQAPGKGLEWIGEINDSGNTIYNPSLKSRVTISRDNSKNTLYLQMNTLRAEDTAIYYCAIYGGNSGGEYWGQGTLVTVSSEPKIPQPQPKPQPQPQPQPKPQPKPEPECTCPKCP
modifications: left off: a dimerising Fc or GST
notes: m36 joined with human IgG1 Fc by a camel IgG2 hinge
In the case of B5, in data set [1], the “number of isolates neutralized” value is recorded as “five isolates”, the “potency against 89.6 compared to m36” value is listed as “higher than that of m36” and the “potency compared to m36h1Fc” value is given as “did not exhibit higher potency”. The same molecule registered an EC50 in data set [2] of around 0.5 nM.

B6: m36SAbp: m36 fused to a serum albumin binding peptide (SAbp), MW~18 kDa (protein)
chain: QVQLVQSGGGLVQPGGSLRLSCAASAFDFSDYEMSWVRQAPGKGLEWIGEINDSGNTIYNPSLKSRVTISRDNSKNTLYLQMNTLRAEDTAIYYCAIYGGNSGGEYWGQGTLVTVSSQRHPEDICLPRWGCLWGDDD
modifications: left off: small tags and cut ends
For the molecule B6, the “binding to serum albumin” value in data set [12], in data set [13] and in [14] was “binds” throughout. The “neutralizing activity compared to m36” value in data set [1] is reported as “slight but not significant decrease; also recorded: about the same neutralizing activity”. In addition, the “binding to gp120Bal-CD4 compared to m36” value in data set [2] is recorded as “comparable to that of m36”.
